Changes are numbered by the printed parent chain.
How the values were obtained:
Assay in all cases: SEC; Superdex 200 10/300 GL column, PBS (pH 7.4), protein approximate 3–4 mg/ml; elution volume compared with mNeptune (monomer standard) and eqFP670 (dimer standard)
mNeptune681_Q159F = target: mNeptune681_Q159F
eqFP670 = target: eqFP670
mNeptune681_Q159Y = target: mNeptune681_Q159Y
mNeptune681_Q159C = target: T1, mNeptune681_Q159C; conditions: both partners purified
T1 chain: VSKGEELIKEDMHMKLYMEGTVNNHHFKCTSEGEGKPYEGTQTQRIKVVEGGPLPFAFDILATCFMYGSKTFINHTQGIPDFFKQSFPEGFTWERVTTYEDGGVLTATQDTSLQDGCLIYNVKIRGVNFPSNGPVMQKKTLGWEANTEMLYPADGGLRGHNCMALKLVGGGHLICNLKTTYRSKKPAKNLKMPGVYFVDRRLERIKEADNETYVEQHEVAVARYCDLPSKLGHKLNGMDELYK

mNeptune681_Q159I = target: T2, mNeptune681_Q159I; conditions: both partners purified
T2 chain: T1 chain with C162I

mNeptune681_Q159W = target: T3, mNeptune681_Q159W; conditions: both partners purified
T3 chain: T1 chain with C162W

mNeptune681_Q159V = target: T4, mNeptune681_Q159V; conditions: both partners purified
T4 chain: T1 chain with C162V

mNeptune681_Q159L = target: T5, mNeptune681_Q159L; conditions: both partners purified
T5 chain: T1 chain with C162L

mNeptune681_Q159T = target: T6, mNeptune681_Q159T; conditions: both partners purified
T6 chain: T1 chain with C162T

mNeptune681_Q159M = target: T7, mNeptune681_Q159M; conditions: both partners purified
T7 chain: T1 chain with C162M

mNeptune681_Q159F
stoichiometry N (mNeptune681_Q159F): 2

eqFP670
stoichiometry N (eqFP670): 2

mNeptune681_Q159Y
stoichiometry N (mNeptune681_Q159Y): 2

B1: mNeptune681_Q159C (other)
chain: T1 chain
modifications: autocatalytic Met-Tyr-Gly chromophore / autocatalytic Met-Tyr-Gly chromophore
stoichiometry N (mNeptune681_Q159C): 2

B2: mNeptune681_Q159I (other)
chain: T1 chain with C162I
modifications: autocatalytic Met-Tyr-Gly chromophore / autocatalytic Met-Tyr-Gly chromophore
stoichiometry N (mNeptune681_Q159I): 2

B3: mNeptune681_Q159W (other)
chain: T1 chain with C162W
modifications: autocatalytic Met-Tyr-Gly chromophore / autocatalytic Met-Tyr-Gly chromophore
stoichiometry N (mNeptune681_Q159W): 2

B4: mNeptune681_Q159V (other)
chain: T1 chain with C162V
modifications: autocatalytic Met-Tyr-Gly chromophore / autocatalytic Met-Tyr-Gly chromophore
stoichiometry N (mNeptune681_Q159V): 2

B5: mNeptune681_Q159L (other)
chain: T1 chain with C162L
modifications: autocatalytic Met-Tyr-Gly chromophore / autocatalytic Met-Tyr-Gly chromophore
stoichiometry N (mNeptune681_Q159L): 2

B6: mNeptune681_Q159T (other)
chain: T1 chain with C162T
modifications: autocatalytic Met-Tyr-Gly chromophore / autocatalytic Met-Tyr-Gly chromophore
stoichiometry N (mNeptune681_Q159T): 2

B7: mNeptune681_Q159M (other)
chain: T1 chain with C162M
modifications: autocatalytic Met-Tyr-Gly chromophore / autocatalytic Met-Tyr-Gly chromophore
stoichiometry N (mNeptune681_Q159M): 2
